Test results published in IntAct's records for PubMed 25173175.

B1: Cohesin subunit SA-2 (Homo sapiens), Q8N3U4 (parent)
chain: MIAAPEIPTDFNLLQESETHFSSDTDFEDIEGKNQKQGKGKTCKKGKKGPAEKGKGGNGGGKPPSGPNRMNGHHQQNGVENMMLFEVVKMGKSAMQSVVDDWIESYKHDRDIALLDLINFFIQCSGCKGVVTAEMFRHMQNSEIIRKMTEEFDEDSGDYPLTMAGPQWKKFKSSFCEFIGVLVRQCQYSIIYDEYMMDTVISLLTGLSDSQVRAFRHTSTLAAMKLMTALVNVALNLSINMDNTQRQYEAERNKMIGKRANERLELLLQKRKELQENQDEIENMMNAIFKGVFVHRYRDAIAEIRAICIEEIGIWMKMYSDAFLNDSYLKYVGWTMHDKQGEVRLKCLTALQGLYYNKELNSKLELFTSRFKDRIVSMTLDKEYDVAVQAIKLLTLVLQSSEEVLTAEDCENVYHLVYSAHRPVAVAAGEFLYKKLFSRRDPEEDGMMKRRGRQGPNANLVKTLVFFFLESELHEHAAYLVDSMWDCATELLKDWECMNSLLLEEPLSGEEALTDRQESALIEIMLCTIRQAAECHPPVGRGTGKRVLTAKEKKTQLDDRTKITELFAVALPQLLAKYSVDAEKVTNLLQLPQYFDLEIYTTGRLEKHLDALLRQIRNIVEKHTDTDVLEACSKTYHALCNEEFTIFNRVDISRSQLIDELADKFNRLLEDFLQEGEEPDEDDAYQVLSTLKRITAFHNAHDLSKWDLFACNYKLLKTGIENGDMPEQIVIHALQCTHYVILWQLAKITESSSTKEDLLRLKKQMRVFCQICQHYLTNVNTTVKEQAFTILCDILMIFSHQIMSGGRDMLEPLVYTPDSSLQSELLSFILDHVFIEQDDDNNSADGQQEDEASKIEALHKRRNLLAAFCKLIVYTVVEMNTAADIFKQYMKYYNDYGDIIKETMSKTRQIDKIQCAKTLILSLQQLFNEMIQENGYNFDRSSSTFSGIKELARRFALTFGLDQLKTREAIAMLHKDGIEFAFKEPNPQGESHPPLNLAFLDILSEFSSKLLRQDKRTVYVYLEKFMTFQMSLRREDVWLPLMSYRNSLLAGGDDDTMSVISGISSRGSTVRSKKSKPSTGKRKVVEGMQLSLTEESSSSDSMWLSREQTLHTPVMMQTPQLTSTIMREPKRLRPEDSFMSVYPMQTEHHQTPLDYNRRGTSLMEDDEEPIVEDVMMSSEGRIEDLNEGMDFDTMDIDLPPSKNRRERTELKPDFFDPASIMDESVLGVSMF
partner: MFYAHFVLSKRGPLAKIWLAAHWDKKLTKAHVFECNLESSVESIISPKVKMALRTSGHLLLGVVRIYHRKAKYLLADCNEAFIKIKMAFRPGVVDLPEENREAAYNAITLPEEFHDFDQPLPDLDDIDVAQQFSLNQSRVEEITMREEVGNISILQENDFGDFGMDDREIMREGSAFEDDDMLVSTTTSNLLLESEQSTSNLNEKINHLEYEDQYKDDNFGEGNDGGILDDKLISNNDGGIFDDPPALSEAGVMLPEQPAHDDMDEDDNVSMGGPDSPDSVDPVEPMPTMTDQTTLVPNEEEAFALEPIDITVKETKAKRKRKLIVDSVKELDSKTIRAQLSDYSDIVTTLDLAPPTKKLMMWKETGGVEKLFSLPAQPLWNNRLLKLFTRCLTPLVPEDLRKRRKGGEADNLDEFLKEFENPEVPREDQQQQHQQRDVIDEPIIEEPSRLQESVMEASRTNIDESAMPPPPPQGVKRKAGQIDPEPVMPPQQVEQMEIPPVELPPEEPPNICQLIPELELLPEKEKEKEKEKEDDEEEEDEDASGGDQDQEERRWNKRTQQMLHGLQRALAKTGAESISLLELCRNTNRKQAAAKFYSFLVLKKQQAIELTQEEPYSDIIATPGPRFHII
B2: Cohesin subunit SA-2 (Homo sapiens), Q8N3U4 (parent)
chain: B1 chain
partner: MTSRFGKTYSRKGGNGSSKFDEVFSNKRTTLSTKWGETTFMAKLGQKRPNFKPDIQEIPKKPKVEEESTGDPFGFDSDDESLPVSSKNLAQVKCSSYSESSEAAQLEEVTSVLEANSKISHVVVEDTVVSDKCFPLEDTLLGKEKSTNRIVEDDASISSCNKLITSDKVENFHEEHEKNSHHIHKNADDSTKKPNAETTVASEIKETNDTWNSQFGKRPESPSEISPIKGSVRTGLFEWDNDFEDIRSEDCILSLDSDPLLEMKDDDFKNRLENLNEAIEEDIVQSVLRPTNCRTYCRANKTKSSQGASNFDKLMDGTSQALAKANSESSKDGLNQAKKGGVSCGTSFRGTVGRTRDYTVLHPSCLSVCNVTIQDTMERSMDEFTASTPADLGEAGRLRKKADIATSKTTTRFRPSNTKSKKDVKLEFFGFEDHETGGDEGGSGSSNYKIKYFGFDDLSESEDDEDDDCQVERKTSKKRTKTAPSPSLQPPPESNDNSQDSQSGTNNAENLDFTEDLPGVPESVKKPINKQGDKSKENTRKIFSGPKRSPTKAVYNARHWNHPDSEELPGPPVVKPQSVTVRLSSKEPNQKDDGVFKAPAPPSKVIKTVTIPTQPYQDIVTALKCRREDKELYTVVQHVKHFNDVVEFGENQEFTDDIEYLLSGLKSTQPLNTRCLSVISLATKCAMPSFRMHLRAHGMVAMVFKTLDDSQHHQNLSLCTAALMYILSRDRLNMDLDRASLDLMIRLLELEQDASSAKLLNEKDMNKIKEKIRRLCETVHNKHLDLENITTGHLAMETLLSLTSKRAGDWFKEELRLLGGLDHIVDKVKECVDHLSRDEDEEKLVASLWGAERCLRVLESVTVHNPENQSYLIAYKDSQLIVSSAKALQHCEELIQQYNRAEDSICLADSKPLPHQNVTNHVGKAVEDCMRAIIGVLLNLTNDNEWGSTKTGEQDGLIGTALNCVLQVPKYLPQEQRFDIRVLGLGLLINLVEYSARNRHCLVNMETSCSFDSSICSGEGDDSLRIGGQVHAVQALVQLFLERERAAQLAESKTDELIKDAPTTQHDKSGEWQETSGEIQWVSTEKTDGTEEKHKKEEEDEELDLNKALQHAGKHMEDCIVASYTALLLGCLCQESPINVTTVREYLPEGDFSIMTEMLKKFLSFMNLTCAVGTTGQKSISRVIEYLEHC
B3: Double-strand-break repair protein rad21 homolog (Homo sapiens), O60216 (parent)
chain: B1 partner
partner: B1 chain

Variants of: B1
Conditions: with rad21_human RAD21, O60216

Variant | effect of a mutation on the interaction
D793K | disrupting interaction strength

Variants of: B2
Conditions: with wapl_human WAPL

Variant | effect of a mutation on the interaction
K290E | disrupting interaction strength
D326K | disrupting interaction strength
K330E | disrupting interaction strength
W334A | decreasing interaction strength

Variants of: B3
Conditions: with stag2_human STAG2, Q8N3U4

Variant | effect of a mutation on the interaction
L385A;L388A;F389A | disrupting interaction strength

Variants of: B3
Conditions: with stag2_human STAG2, Q8N3U4
Remark: another data set of the same source

Variant | effect of a mutation on the interaction
D327K | decreasing interaction strength
